The values below come from PMC6787100.

Several values for one entry are separate records, joined by “and”; a condition that tells them apart may be missing. Equal values may be shown once.

For experiment [1], the target named is Hag (ex), recombinant Hag with the flg22 region replaced by flg22 (Ps) (Bacillus subtilis BSn5 | Pseudomonas syringae). Nature of the experiment: MST; protein labelled with Cy5-NHS ester at fixed concentration, serial 2x dilutions of unlabelled subtilomycin (1 mM set as highest; 500 μM highest final in the legend); PBS pH 8.0; MST power 20%, LED power 60%; Monolith NT.115; constants called ambiguous, based on total subtilomycin concentration.

The target of experiment [2] is lantibiotic subtilomycin (Bacillus subtilis BSn5). Nature of the experiment: tricine-SDS-PAGE; purified subtilomycin on 16% tricine-SDS-PAGE; bands of around 9, 12 and 15 kDa; oligomers of subtilomycin.

Consider lantibiotic subtilomycin (peptide), for which the Kd in experiment [1] worked out at 80.6 µM. Also, the stoichiometry N in experiment [2] is 3 and 4 and 5.

In general, Kd refers to the equilibrium constant for the complex coming apart. A word on the stoichiometry N: it is the number of molecules, sites or subunits per partner or assembly.
